Substitutions are numbered along the chain they refer to. Values joined by “and” are separate entries in the source; they are usually repeats but may differ in a detail not shown here. Equal values may be shown once.
B1: DOM23h-813 (VHH, not shown: small tags and cut ends)
VHH: EVQLLESGGGLVQPGGSLRLSCAASGSTFTDDRMWWVRQAPGKGLEWVSAIQPDGHTTYYADSVKGRFTISRDNSKNTLYLQMNSLRAEDTAVYYCAEQDVKGSSSFDYWGQGTLVTVSS
B2: DOM23h-866 (VHH, not shown: small tags and cut ends)
VHH: EVQLLESGGGLVQPGGSLRLSCAASGFTFSNYWMRWARQAPGKGLEWVSYITPKGDHTYYADSVKGRFTISRDNSKNTLYLQMNSLRAEDTAVYYCAESLHNERVKHFDYWGQGTLVTVSS
B3: DOM23h-874 (VHH, not shown: small tags and cut ends)
VHH: EVQLLESGGGLVQPGGSLRLSCAASGFTFTSYRMWWVRQAPGKGLEWVSVIDSTGSATYYADSVKGRFTISRDNSKNTLYLQMNSLRAEDTAVYYCAKQQAGSAMGEFDYWGQGTLVTVSS
B4: DOM23h-850 (VHH, not shown: small tags and cut ends)
VHH: EVQLLESGGGLVQPGGSLRLSCAASGFTFDAARMWWARQAPGKGLEWVSAIADIGNTTYYADSVKGRFTISRDNSKNTLYLQMNSLRAEDTAVYYCAKQSGSEDHFDYWGQGTLVTVSS
B5: DOM23h-830 (VHH, not shown: small tags and cut ends)
VHH: EVQLLESGGGLVQPGGFLRLSCAASGFTFEGYRMWWVRQAPGKGLEWVSAIDSLGDRTYYADSVKGRFTISRDNSKNTLYLQMNSLRAEDTAVYYCAKQGLTHQSPSTFDYWGQGTLVTVSS
B6: DOM23h-815 (VHH, not shown: small tags and cut ends)
VHH: EVQLLESGGGLVQPGGSLRLSCAASGFTFAEDRMWWVRQAPGKGLEWVSAIDPQGQHTYYADSVKGRFTISRDNSKNTLYLQMNSLRAEDTAVYYCAKQSTGSATSDYWGQGTLVTVSS
B7: DOM23h-842 (VHH, not shown: small tags and cut ends)
VHH: EVQLLESGGGLVQPGGSLRLSCAASGFTFDDSEMAWARQAPGKGLEWVSLIRRNGNATYYADSVKGRFTISRDNSKNTLYLQMNSLRAEDTAVYYCAKVTKDRSVLFDYWGQGTLVTVSS
B8: DOM23h-854 (VHH, not shown: small tags and cut ends)
VHH: EVQLLESGGGLVQPGGSLRLSCAASGFTFAQDRMWWVRQAPGKGLEWVSAISGSGGSTYYADSVKGRFTISRDNSKNTLYLQMNSLRAEDTAVYYCAKQDLHGTSSLFDYWGQGTLVTVSS
B9: DOM23h-865 (VHH, not shown: small tags and cut ends)
VHH: EVQLLESGGGLVQPGGSLRLSCAASGFTFRSYEMTWVRQAPGKGLEWVSKIDPSGRFTYYADSVKGRFTISRDNSKNTLYLQMNSLRAEDTAVYYCAKGRTDLQLFDYWGQGTLVTVSS
B10: DOM23h-883 (VHH, not shown: small tags and cut ends)
VHH: EVQLLESGGGLVQPGGSLRLSCAASGFTFVNYRMWWVRQAPGKGLEWVSAISGSGDKTYYADSVKGRFTISRDNSKNTLYLQMNSLRAEDTAVYYCAKHGLSFDYWGQGTLVTVSS
B11: DOM23h-831 (VHH, not shown: small tags and cut ends)
VHH: EVQLLESGGGLVQPGGSLRLSCAASGFTFEAYKMTWVRQAPGKGLEWVSYITPSGGQTYYADSVKGRFTISRDNSKNTLYLQMNSLRAEDTAVYYCAKYGSSFDYWGQGTLVTVSS
B12: DOM23h-903 (VHH, not shown: small tags and cut ends)
VHH: EVQLLESGGGLVQPGGSLRLSCAASGFTFNDMRMWWVRQAPGKGLEWVSVINADGNRTYYADSVKGRFTISRDNSKNTLYLQMNSLRAEDTAVYYCAKDGLPFDYWGQGTLVTVSS
B13: DOM23h-828 (VHH, not shown: small tags and cut ends)
VHH: EVQLLESGGGLVQPGGSLRLSCAASGFTFMSYRMWWVRQAPGKGLEWVSAISPSGSDTYYADSVKGRFTISRDNSKNTLYLQMNSLRAEDTAVYYCAKQVVEYSRTHKGVFDYWGQGTLVTVSS
B14: DOM23h-802 (VHH, not shown: small tags and cut ends)
VHH: EVQLLESGGGLVQPGGSLRLSCAASGFTFSEGTMWWVRQAPGKGLEWVSAILAAGSNTYYADSVKGRFTISRDNSKNTLYLQMNSLRAEDTAVYYCAKKRQERDGFDYWGQGTLVTVSS
B15: DOM23h-840 (VHH, not shown: small tags and cut ends)
VHH: EVQLLESGGGLVQPGGSLRLSCAASGFTFGDGRMWWVRQAPGKGLEWVSAIEGAGSDTYYADSVKGRFTISRDNSKNTLYLQMNSLRAEDTAVYYCAKQASRNSPFDYWGQGTLVTVSS
B16: DOM23h-803 (VHH, not shown: small tags and cut ends)
VHH: EVQLLESGGGLVQPGGSLRLSCAASGFTFSAGRMWWVRQAPGKGLEWVSAINRDGTRTYYADSVKGRFTISRDNSKNTLYLQMNSLRAEDTAVYYCAKHDDGHGNFDYWGQGTLVTVSS
B17: DOM23h-271-101 (VHH)
VHH: EVQLLESGGGLVQPGGSLRLSCAASGFTFTEYRMWWVRQAPGKGLEWVSAIEPIGNRTYYADSVKGRFTISRDNSKNTLYLQMNSLRAEDTAVYYCAKQIPGRKWTANGRKDYWGQGTLVTVSS
notes: human VH dAb from phage display maturation of DOM23h-271-7; not shown: C-terminal FLAG tag from vector pDOM10
B18: DOM23h-271-114 (VHH)
VHH: B17 VHH with W105G, G109S, K111F
notes: as for B17
B19: DOM23h-271-102 (VHH)
VHH: B17 VHH with F27S, N56H, G109S, K111F
notes: as for B17
B20: DOM23h-271-105 (VHH)
VHH: B17 VHH with R103Q, K104R, A107G, G109S, K111F
notes: as for B17
B21: DOM23h-271-106 (VHH)
VHH: B17 VHH with I100F, G109S, K111S
notes: human VH dAb from phage display maturation of DOM23h-271-7; also called 271-106a; 271-106b; not shown: C-terminal FLAG tag from vector pDOM10

What follows are binders tested against human TGF-βRII on cells (SBE-bla HEK 293T cells; A549 cells) (human, UniProt P37173 23-567) (assay: cell-based or functional assay).
Chain of human TGF-βRII on cells (SBE-bla HEK 293T cells; A549 cells) (P37173 23-567): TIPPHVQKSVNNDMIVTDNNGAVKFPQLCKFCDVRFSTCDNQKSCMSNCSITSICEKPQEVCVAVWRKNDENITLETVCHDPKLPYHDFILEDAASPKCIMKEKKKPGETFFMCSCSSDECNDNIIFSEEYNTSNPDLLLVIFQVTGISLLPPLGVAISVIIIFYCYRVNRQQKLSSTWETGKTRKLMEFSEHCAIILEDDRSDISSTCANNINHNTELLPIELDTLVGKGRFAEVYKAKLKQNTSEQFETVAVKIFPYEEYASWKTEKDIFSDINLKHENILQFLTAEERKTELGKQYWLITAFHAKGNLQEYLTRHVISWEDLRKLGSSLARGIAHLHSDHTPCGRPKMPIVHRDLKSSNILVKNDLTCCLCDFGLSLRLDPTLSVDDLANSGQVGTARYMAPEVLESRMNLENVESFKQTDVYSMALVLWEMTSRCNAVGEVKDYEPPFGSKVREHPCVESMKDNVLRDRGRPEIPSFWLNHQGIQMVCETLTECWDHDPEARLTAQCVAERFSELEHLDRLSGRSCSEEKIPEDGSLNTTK

Point of comparison: B15, “IC50 nM, Mean (SBE-bla HEK 293T cell sensor assay, h2)” value 2920 nM. Against it:
- B1 — higher, > 9330 nM
- B2 — not separable, > 1760 nM
- B3 — not separable, > 925 nM
- B4 — 1.8-fold higher, 5350 nM
- B5 — 2.2-fold higher, 6300 nM
- B6 — 2.4-fold higher, 7120 nM
- B7 — within 1.5-fold, 2040 nM
- B8 — higher, > 9550 nM
- B9 — 1.9-fold higher, 5560 nM
- B10 — 3.5-fold higher, 10100 nM
- B11 — higher, > 3130 nM
- B12 — 2.8-fold lower, 1050 nM
- B13 — 3.4-fold higher, 9900 nM
- B14 — higher, > 11100 nM
- B16 — higher, > 11600 nM

These binders were tested against T1, recombinant human TGF-β RII/Fc chimera protein (human, UniProt P37173 24-159) (assay: SPR Biacore T100, human TGFbRII-FC, 1:1 model).
T1 construct: range 24-159; Made in HEK-F cells; Biotinylated where it was put on SA chips, otherwise captured by anti-human IgG; also called human TGFbRII/Fc; hRII-Fc; not shown: Fc region of human IgG1
Method: Triplet or doped libraries in separate CDR1, CDR2 and CDR3 pools were subjected to rounds of phage selection as described above against either biotinylated human TGF-β RII/Fc antigen over 4 rounds in concentrations of 10 nM, 1 nM, 100 pM and 20 pM respectively, or two rounds of selection using 20 pM followed by 2 pM antigen. Inserts from phage selections were cloned into the pDOM10 expression vector and supernatants with off rates improved over parent were selected for further study. Domain antibodies were expressed and purified their affinity and bioactivity against human TGF-β RII/Fc antigen tested on the BIACORE™ T100 and in the Cell sensor assay described above (data not shown).
BIACORE™ analysis was carried out using a capture surface on a CM4 chip. Anti-human IgG was used as the capturing agent and coupled to a CM4 biosensor chip by primary amine coupling. The Antigen molecule fused to the human Fc was captured on this immobilised surface to a level from 250 to 300 resonance units and defined concentrations of Domain antibodies diluted in running buffer were passed over this captured surface. An injection of buffer over the captured antigen surface was used for double referencing. […] All runs were carried out at 25° C. using HBS-EP buffer as running buffer. Data were generated using the BIACORE™ T100 and fitted to the 1:1 binding model inherent to the software.

T1 sequence (P37173 24-159 limits assumed, stated change not applied): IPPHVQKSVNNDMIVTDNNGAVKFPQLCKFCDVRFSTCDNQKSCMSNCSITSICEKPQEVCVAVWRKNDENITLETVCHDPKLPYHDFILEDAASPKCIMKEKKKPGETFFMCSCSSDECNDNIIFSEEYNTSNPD

Point of comparison: B19, Kd 1.64 nM. Against it:
- B17 — 3.3-fold higher, 5.4 nM
- B18 — 4.1-fold higher, 6.8 nM

Point of comparison: B18, koff 0.0708 s⁻¹. Against it:
- B17 — 3.5-fold lower, 0.0201 s⁻¹
- B19 — 4.6-fold lower, 0.0153 s⁻¹

Point of comparison: B19, kon 9.35e+06 M⁻¹ s⁻¹. Against it:
- B17 — 2.5-fold lower, 3.73e+06 M⁻¹ s⁻¹
- B18 — within 1.5-fold, 1.04e+07 M⁻¹ s⁻¹

B20 was tested, and the Kd was 2.27 nM and 2.6 nM.
In the case of B21, the Kd is reported as 3.16 nM and 2.88 nM.

For B20, the koff was 0.00747 s⁻¹ and 0.00798 s⁻¹.
For B21, the koff was 0.0233 s⁻¹ and 0.0195 s⁻¹.

B20 was tested, and the kon was 3.29e+06 M⁻¹ s⁻¹ and 3.07e+06 M⁻¹ s⁻¹.
B21 was tested, and the kon was 7.39e+06 M⁻¹ s⁻¹ and 6.77e+06 M⁻¹ s⁻¹.

— patent US20150361176A1 (GlaxoSmithKline, published 2015)
